These results are taken from patent US20210255174.

This data set deals with SNAPtide (FITC/DABCYL), List Biological Laboratories product #521.

For the substance “BoNT/A complex (intact BoNT/A toxin complex, Metabiologics)”, the “Km of SNAPtide hydrolysis, bead-immobilized BoNT/A (bead based ALISSA)” value was “bead based ALISSA: typical Km=0.2 µM” and the “Km of SNAPtide hydrolysis, free BoNT/A (non-bead based assay)” value is “non-bead based assay: typical Km=0.7 µM”.
